Assay: Transdermal delivery of hGH by ViaDerm and iontophoresis in rats, high/low hGH dose vs SC
Assay type: in vivo
Parameters: hGH plasma levels: unit not given here
Settings: for hGH plasma levels: Avg.
Experimental: In the present experiment a power supply (parallel connection instead of serial) was used in order to improve the power supply.
Human GH solution was prepared from a 12 mg Genotropin vial (Genotropin®, Pharmacia and Upjohn). The levels of hGH in serum were analyzed using Elisa kit (DSL Inc. Webster Tex., USA). HPLC was used to quantitate SC solution.
ViaDerm operating parameters: Burst length—700 μsec; Voltage—330V; Number of bursts—2; 2 applications on the same skin area (150 micro-channels/cm^2); Two application sites (total area 2.8 cm^2); Without current limitation; 80 μm diameter electrode of the electrode arrays.
Iontophoresis application parameters: Current density 0.64 mA/cm^2 (total 1.8 mA). Current elevation time (from 0-max) 20 seconds. Current application time 8 hours.

[1] = ViaDerm + Iontophoresis off 15 mg
[2] = ViaDerm + Iontophoresis on 1.5 mg
[3] = ViaDerm + Iontophoresis on 15 mg

Substance: hGH: human growth hormone (Genotropin, Pharmacia and Upjohn)
- hGH plasma levels (1.5 mg hGH, Iontoph. on, +VD, 0.0 hr): 0.1
- hGH plasma levels (1.5 mg hGH, Iontoph. on, +VD, 1.0 hr): 225.1
- hGH plasma levels (1.5 mg hGH, Iontoph. on, +VD, 2.0 hr): 346.3
- hGH plasma levels (1.5 mg hGH, Iontoph. on, +VD, 3.0 hr): 617.3
- hGH plasma levels (1.5 mg hGH, Iontoph. on, +VD, 4.0 hr): 444.5
- hGH plasma levels (1.5 mg hGH, Iontoph. on, +VD, 6.0 hr): 184.3
- hGH plasma levels (1.5 mg hGH, Iontoph. on, +VD, 8.0 hr): 111.3
- hGH plasma levels (15 mg hGH, Iontoph. off, +VD, 0.0 hr): 0.1
- hGH plasma levels (15 mg hGH, Iontoph. off, +VD, 1.0 hr): 89.7
- hGH plasma levels (15 mg hGH, Iontoph. off, +VD, 2.0 hr): 178.7
- hGH plasma levels (15 mg hGH, Iontoph. off, +VD, 3.0 hr): 283.7
- hGH plasma levels (15 mg hGH, Iontoph. off, +VD, 4.0 hr): 389.4
- hGH plasma levels (15 mg hGH, Iontoph. off, +VD, 6.0 hr): 573.1
- hGH plasma levels (15 mg hGH, Iontoph. off, +VD, 8.0 hr): 873.4
- hGH plasma levels (15 mg hGH, Iontoph. on, +VD, 0.0 hr): 0.0
- hGH plasma levels (15 mg hGH, Iontoph. on, +VD, 1.0 hr): 504.8
- hGH plasma levels (15 mg hGH, Iontoph. on, +VD, 2.0 hr): 958.5
- hGH plasma levels (15 mg hGH, Iontoph. on, +VD, 3.0 hr): 2011.6
- hGH plasma levels (15 mg hGH, Iontoph. on, +VD, 4.0 hr): 2204.9
- hGH plasma levels (15 mg hGH, Iontoph. on, +VD, 6.0 hr): 1802.0
- hGH plasma levels (15 mg hGH, Iontoph. on, +VD, 8.0 hr): 1244.1
- hGH plasma levels (15 mg hGH, Iontoph. on, intact, 0.0 hr): 0.1
- hGH plasma levels (15 mg hGH, Iontoph. on, intact, 1.0 hr): 1.9
- hGH plasma levels (15 mg hGH, Iontoph. on, intact, 2.0 hr): 7.2
- hGH plasma levels (15 mg hGH, Iontoph. on, intact, 3.0 hr): 8.3
- hGH plasma levels (15 mg hGH, Iontoph. on, intact, 4.0 hr): 9.2
- hGH plasma levels (15 mg hGH, Iontoph. on, intact, 6.0 hr): 5.4
- hGH plasma levels (15 mg hGH, Iontoph. on, intact, 8.0 hr): 4.7
- AUC (Intact + Iontophoresis 15 mg): 47 ng·h/mL
- Bioavailability (Intact + Iontophoresis 15 mg): 0.05%
- hGH plasma levels (S.C. 150 ug/0.2 ml hGH, 0.0 hr): 0.1
- hGH plasma levels (S.C. 150 ug/0.2 ml hGH, 1.0 hr): 153.0
- hGH plasma levels (S.C. 150 ug/0.2 ml hGH, 2.0 hr): 156.8
- hGH plasma levels (S.C. 150 ug/0.2 ml hGH, 3.0 hr): 127.8
- hGH plasma levels (S.C. 150 ug/0.2 ml hGH, 4.0 hr): 120.1
- hGH plasma levels (S.C. 150 ug/0.2 ml hGH, 6.0 hr): 75.3
- hGH plasma levels (S.C. 150 ug/0.2 ml hGH, 8.0 hr): 43.4
- AUC (SC 150 ug): 812 ng·h/mL
- Bioavailability (SC 150 ug (reference)): 100%
- AUC [1]: 3156 ng·h/mL
- Bioavailability [1]: 3.9%
- AUC [2]: 2336 ng·h/mL
- Bioavailability [2]: 28.8%
- AUC [3]: 11630 ng·h/mL
- Bioavailability [3]: 14.3%
- clinical observations at the site of the patch application (abdomen, current on 0.64 mA/cm^2 for 8 hours): Black burning marks (3rd degree burns)
- clinical observations at the site of the patch application (animals in which the power supply was off): No burn marks
- hGH delivery by iontophoresis alone (intact skin, 15 mg hGH): does not cause hGH delivery
